Experimental data published in US20100138945A1 (FEMTA PHARMACEUTICALS, published 2010).

Molecular target: T1, human IL-6 (Interleukin-6) (human, UniProt P05231 30-212)
T1 construct: also called 001 IL-6 antigen
Test: specific activity: affinity ELISA on IL-6 divided by quantitation ELISA, normalized to BA399 = 1
Description: 200 μl washing solution (0.05% Tween-20 in PBS) was added and shaken at 200 RPM for 5 min at room temperature. The plates were emptied and residual liquid tapped out on paper towels. 200 μl blocking solution (2% Carnation milk in PBS) was added and shaken at 200 RPM for one hour at room temperature. Plates were emptied and residual liquid tapped out on paper towels. 100 μl of diluted samples for ELISA was used. The samples were shaken at 200 RPM for one hour at room temperature; plates emptied and residual liquid tapped out on paper towels. 200 μl washing solution (0.05% Tween-20 in PBS) was added, shaken at 200 RPM for 5 min at room temperature; plates emptied and residual liquid tapped out on paper towels. This process was repeated three times. 100 μl of 1:2500 dilution of anti-human IgG conjugated with HRP diluted in block solution (2% Carnation milk in PBS) was added for 001 samples. 100 μl of 1:2500 dilution of anti-rabbit IgG conjugated with HRP diluted in block solution (2% Carnation milk in PBS) was added for control antibody. The contents were shaken at 200 RPM for one hour at room temperature, plates emptied and residue liquid tapped out on paper towels. 200 μl washing solution (0.05% Tween-20 in PBS) was added, shaken at 200 RPM for 5 min at room temperature; plates emptied and residual liquid tapped out on paper towels. This process was repeated three times. 100 μl TMB substrate solution was added, and incubated at room temperature. The reaction was stopped with 1 N HCl, and the plate read at 450 nm.
This ELISA was used for determining the expression level of antibodies in cell culture supernatant. […] Covered with plate sealer and incubated at 4° C. overnight. Emptied plate and tapped out residual liquid on paper towels. Added 200 μl washing solution (0.05% Tween-20 in PBS). Shaken at 200 RPM for 5 min at room temperature. Emptied plate and tapped out residual liquid on paper towels. Added 200 μl blocking solution (2% Carnation milk in PBS). Shaken at 200 RPM for one hour at room temperature. Emptied plate and tapped out residual liquid on paper towels. Used 100 μl of diluted sample for ELISA. 20 ng/ml of human IgG and 1:2 dilution thereafter was used for standards.

binding result | Molecule
binds | BA399_CPS_01 (antibody, V domains shown, also called Clone BA399-01; BA399_01) VH: QVQLVQSGAEVKKPGASVKVSCKASGFTFSSFAMSWIRQSPSRGLEWLGEISSGGSYTYYPDTVTGRFTISRDNAKNSLYLQMNSLRAEDTAVYYCARGQWGYYALDYWGQG VL: AIQLTQSPSSLSASVGDRVTITCSASSSVSYMYWYQQKPGQAPRLLIYDTSNLASGIPPRFSGSGYGTDFTLTINNIESEDAAYYFCQDWSGYPYTFGQG
binds | BA399_CPS_03 (antibody, V domains shown, also called Clone BA399-03; BA399_03) VH: QVQLVQSGAEVKKPGASVKVSCKASHFTFSSFAMSWIRQSPSRGLEWLGEISSGGSYHYYPDTVTGRFTISRDNAKNSLYLQMNSLRAEDTAVYYCARGQWGYYALDYWGQG VL: AIQLTQSPSSLSASVGDRVTITCSASSSVSYMYWYQQKPGQAPRLLIYDTLNLASGIPPRFSGSGYGTDFTLTINNIESEDAAYYFCQQWSGYPYTFGQG
binds | BA399_CPS_04 (antibody, V domains shown, also called Clone BA399-04; BA399_04) VH: QVQLVQSGAEVKKPGASVKVSCKASGFTFSSFSMSWIRQSPSRGLEWLGEISSGGSYTYYPDTVTGRFTISRDNAKNSLYLQMNSLRAEDTAVYYCARGQWGYYALDYWGQG VL: AIQLTQSPSSLSASVGDRVTITCSASSSVSYMYWYQQKPGQAPRLLIYDTSNLASGIPPRFSGSGYGTDFTLTINNIESEDAAYYFCQDWSGYPYTFGQG
binds | BA399_CPS_06 (antibody, V domains shown, also called Clone BA399-06; BA399_06) VH: QVQLVQSGAEVKKPGASVKVSCKASGFTFSSFSMSWIRQSPSRGLEWLGEISSGGSYHYYPDTVTGRFTISRDNAKNSLYLQMNSLRAEDTAVYYCARGQWGYYALDYWGQG VL: AIQLTQSPSSLSASVGDRVTITCYASSSVSYMYWYQQKPGQAPRLLIYDTLNLASGIPPRFSGSGYGTDFTLTINNIESEDAAYYFCQDWSGYPYTFGQG

Molecular target: T1, human IL-6 (Interleukin-6)
Test: Biacore (SPR), antibody captured on anti-human Fc, IL-6 as analyte

Kd | koff | kon | Molecule
39.6 pM | 5.88e-05 s⁻¹ | 1.48e+06 M⁻¹ s⁻¹ | Anti-IL-6 Ab BA802 (antibody, V domains shown, Humanized monoclonal antibody) VH: QVQLVQSGAEVKKPGASVKVSCKASGFTFSSFAMSWIRQSPSRGLEWLGEISSGGSYTYYPDTVTGRFTISRDNAKNSLYLQMNSLRAEDTAVYYCARGLWGYYALDYWGQG VL: EIVLTQSPDFQSVTPKEKVTITCSASSSVSYMYWYLQKPGQSPQLLIYDTSNLASGVPSRFSGSGSGTDFTLTISSLQPEDFATYYCQQWSGYPYTFGQG
236 pM | 0.000237 s⁻¹ | 1.01e+06 M⁻¹ s⁻¹ | Anti-IL-6 Ab BA840 (antibody, V domains shown, Humanized monoclonal antibody) VH: QVQLVQSGAEVKKPGASVKVSCKASGFTFSSFAMSWIRQPPGKGLEWIGEISSGGSYTYYPDTVTGRFTISRDNAKNSLYLQMNSLRAEDTAVYYCARGLWGYYALDYWGQG VL: EIVLTQSPDFQSVTPKEKVTITCSASSSVSYMYWYLQKPGQSPQLLIYDTSNLASGIPPRFSGSGYGTDFTLTINNIESEDAAYYFCQQWSGYPYTFGQG
50.5 pM | 6.59e-05 s⁻¹ | 1.31e+06 M⁻¹ s⁻¹ | Anti-IL-6 Ab BA808 (antibody, V domains shown, Humanized monoclonal antibody) VH: QVQLVQSGAEVKKPGASVKVSCKASGFTFSSFAMSWIRQSPSRGLEWLGEISSGGSYTYYPDTVTGRFTISRDNAKNSLYLQMNSLRAEDTAVYYCARGLWGYYALDYWGQG VL: EIVLTQSPATLSVSPGERATLSCSASSSVSYMYWYLQKPGQSPQLLIYDTSNLASGIPPRFSGSGYGTDFTLTINNIESEDAAYYFCQQWSGYPYTFGQG
40 pM | 5.76e-05 s⁻¹ | 1.44e+06 M⁻¹ s⁻¹ | Anti-IL-6 Ab BA939 (antibody, V domains shown, Humanized monoclonal antibody) VH: QVQLVQSGAEVKKPGASVKVSCKASGFTFSSFAMSWVRQAPGQGLEWMGEISSGGSYTYYPDTVTGRFTISRDNAKNSLYLQMNSLRAEDTAVYYCARGLWGYYALDYWGQG VL: DIQMTQSPSSLSASVGDRVTITCSASSSVSYMYWYQQKPGQAPRLLIYDTSNLASGIPPRFSGSGYGTDFTLTINNIESEDAAYYFCQQWSGYPYTFGQG
86.5 pM | 6.44e-05 s⁻¹ | 745000 M⁻¹ s⁻¹ | Anti-IL-6 Ab BA890 (antibody, V domains shown, Humanized monoclonal antibody) VH: QVQLVQSGAEVKKPGASVKVSCKASGFTFSSFAMSWIRQPPGKGLEWIGEISSGGSYTYYPDTVTGRFTISRDNAKNSLYLQMNSLRAEDTAVYYCARGLWGYYALDYWGQG VL: AIQLTQSPSSLSASVGDRVTITCSASSSVSYMYWYQQKPGQAPRLLIYDTSNLASGIPPRFSGSGYGTDFTLTINNIESEDAAYYFCQQWSGYPYTFGQG
127 pM | 0.000158 s⁻¹ | 1.25e+06 M⁻¹ s⁻¹ | Anti-IL-6 Ab BA848 (antibody, V domains shown, Humanized monoclonal antibody) VH: EVQLVQSGAEVKKPGASVKVSCKASGFTFSSFAMSWVRQAPGQGLEWMGEISSGGSYTYYPDTVTGRFTISRDNAKNSLYLQMNSLRAEDTAVYYCARGLWGYYALDYWGQG VL: AIQLTQSPSSLSASVGDRVTITCSASSSVSYMYWYQQKPGQAPRLLIYDTSNLASGIPPRFSGSGYGTDFTLTINNIESEDAAYYFCQQWSGYPYTFGQG

Molecular target: T1, human IL-6 (Interleukin-6)
Test: as above
Remark: another data set of the same source

Ka | Kd | koff | kon | Molecule
3.52e+10 M⁻¹ | 28.4 pM | 2.86e-05 s⁻¹ | 1.01e+06 M⁻¹ s⁻¹ | Clone BA399-05 (antibody, V domains shown, also called BA399-5) VH: QVQLVQSGAEVKKPGASVKVSCKASGFTFSSFAMSWIRQSPSRGLEWLGEISSGGSYTYYPDTKTGRFTISRDNAKNSLYLQMNSLRAEDTAVYYCARGQWGYYALDYWGQG VL: AIQLTQSPSSLSASVGDRVTITCYASSSVSYMYWYQQKPGQAPRLLIYDTSNLASGIPPRFSGSGYGTDFTLTINNIESEDAAYYFCQDWSGYPYTFGQG
3.52e+12 M⁻¹ | 0.284 pM | 1.82e-07 s⁻¹ | 643000 M⁻¹ s⁻¹ | BA399_CPS_10 (antibody, V domains shown, also called Clone BA399-10; BA399_10) VH: QVQLVQSGAEVKKPGASVKVSCKASHFTFSSFSMSWIRQSPSRGLEWLGEISSGGSYHYYPDTVTGRFTISRDNAKNSLYLQMNSLRAEDTAVYYCARGQWGYYALDYWGQG VL: AIQLTQSPSSLSASVGDRVTITCYASSSVSYMYWYQQKPGQAPRLLIYDTLNLASGIPPRFSGSGYGTDFTLTINNIESEDAAYYFCQQWSGYPYTFGQG
8.14e+13 M⁻¹ | 0.0123 pM | 9.11e-09 s⁻¹ | 742000 M⁻¹ s⁻¹ | Clone BA399-02 (antibody, V domains shown, also called BA399-2; BA399 clone #2) VH: QVQLVQSGAEVKKPGASVKVSCKASGFTFSSFSMSWIRQSPSRGLEWLGEISSGGSYTYYPDTKTGRFTISRDNAKNSLYLQMNSLRAEDTAVYYCARGQWGYYALDYWGQG VL: AIQLTQSPSSLSASVGDRVTITCYASSSVSYMYWYQQKPGQAPRLLIYDTSNLASGIPPRFSGSGYGTDFTLTINNIESEDAAYYFCQQWSGYPYTFGQG
1.28e+13 M⁻¹ | 0.0783 pM | 5.07e-08 s⁻¹ | 648000 M⁻¹ s⁻¹ | Clone BA399-09 (antibody, V domains shown, also called BA399-9; BA399 clone #9) VH: QVQLVQSGAEVKKPGASVKVSCKASGFTFSSFSMSWIRQSPSRGLEWLGEISSGGSYHYYPDTVTGRFTISRDNAKNSLYLQMNSLRAEDTAVYYCARGQWGYYALDYWGQG VL: AIQLTQSPSSLSASVGDRVTITCYASSSVSYMYWYQQKPGQAPRLLIYDTLNLASGIPPRFSGSGYGTDFTLTINNIESEDAAYYFCQQWSGYPYTFGQG

Molecular target: T1, human IL-6 (Interleukin-6)
Test: Sapidyne KinExA kinetic exclusion assay on IL-6; Kd Range (95% Confidence Interval) printed: 5.66pM to 3.28pM
Target sequence in this assay (P05231 30-212 limits assumed): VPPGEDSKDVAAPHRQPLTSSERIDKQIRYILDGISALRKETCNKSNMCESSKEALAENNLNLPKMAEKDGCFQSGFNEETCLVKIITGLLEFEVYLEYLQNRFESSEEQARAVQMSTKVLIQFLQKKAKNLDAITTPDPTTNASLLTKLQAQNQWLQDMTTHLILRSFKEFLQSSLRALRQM

Kd | Molecule
4.37 pM | Anti-IL-6 Mab BA003 (CNTO136) (antibody)
